Consider three molecules from article PMC2690642 (Journal of neurochemistry, 2008).

To fix the notation:
B1: regulatory (R) domain of the N-methyl-D-aspartate receptor NR1 subunit, NR1(19-380) (domain or fragment)
chain: not shown
B2: regulatory (R) domain of the N-methyl-D-aspartate receptor NR2B subunit, NR2B(27-390) (domain or fragment)
chain: not shown
B3: regulatory (R) domain of the N-methyl-D-aspartate receptor NR2A subunit, NR2A(23-389) (domain or fragment)
chain: not shown

Data set [1] deals with B3. Nature of the data set: co-IP.
Data set [2] concerns the target B2. Kind of data set: co-IP.
The data set “SEC” concerns the molecule itself. Nature of the data set: SEC. (SEC sorts molecules by how far they enter the pores of the column.)

Consider B1, for which the binding result in data set [1] and in data set [2] was “binds” in each case. Moreover, the “percentage of the monomer form” value in “SEC” was found to be 37%.
Regarding B2, the “percentage of the monomer form” value in the data set “SEC” came to 71%.
As for B3, in the data set “SEC”, the “percentage of the monomer form” value stood at 73%.
